Results published in patent publication US20250179143A1, “SYSTEMS AND METHODS FOR CHAPERONE-MEDIATED LIGAND EXCHANGE ON MHC-I AND MHC-RELATED MOLECULES USING CHICKEN TAPBPR” (priority 2022, published 2025).

How the values were obtained:
[1] = target: 96 HLA-I allotypes on single antigen beads (SABs); assay: SAB tetramer assay, ratio to W6/32 control
[2] = target: peptide-deficient (empty) HLA-B*37:01/hb2m (human); assay: SPR, TAPBPR-biotin on streptavidin chip, UV-irradiated (empty) HLA as analyte; settings: remark: other sources report otherwise

B1: mouse TAPBPR luminal domain (moTAPBPR) (protein, UniProt Q8VD31 21-412, looked up)
chain: TDPPTAPTTAERQRQPTDIILDCFLVTEDRHRGAFASSGDRERALLVLKQVPVLDDGSLEGITDFQGSTETKQDSPVIFEASVDLVQIPQAEALLHADCSGKAVTCEISKYFLQARQEATFEKAHWFISNMQVSRGGPSVSMVMKTLRDAEVGAVRHPTLNLPLSAQGTVKTQVEFQVTSETQTLNHLLGSSVSLHCSFSMAPGLDLTGVEWRLQHKGSGQLVYSWKTGQGQAKRKGATLEPEELLRAGNASLTLPNLTLKDEGNYICQISTSLYQAQQIMPLNILAPPKIQLHLANKDPLPSLVCSIAGYYPLDVGVTWIREELGGIPAQVSGASFSSLRQSTMGTYSISSTVMADPGPTGATYTCQVAHVSLEEPLTTSMRVLPNPEQRG
**Q.** How did the MFI ratio [1] turn out when B1 was run?
**A.** Its MFI ratio is under 5.8.

B2: human TAPBPR luminal domain (hTAPBPR), Q9BX59 22-405 (protein)
chain: KPHPAEGQWRAVDVVLDCFLAKDGAHRGALASSEDRARASLVLKQVPVLDDGSLEDFTDFQGGTLAQDDPPIIFEASVDLVQIPQAEALLHADCSGKEVTCEISRYFLQMTETTVKTAAWFMANMQVSGGGPSISLVMKTPRVTKNEALWHPTLNLPLSPQGTVRTAVEFQVMTQTQSLSFLLGSSASLDCGFSMAPGLDLISVEWRLQHKGRGQLVYSWTAGQGQAVRKGATLEPAQLGMARDASLTLPGLTIQDEGTYICQITTSLYRAQQIIQLNIQASPKVRLSLANEALLPTLICDIAGYYPLDVVVTWTREELGGSPAQVSGASFSSLRQSVAGTYSISSSLTAEPGSAGATYTCQVTHISLEEPLGASTQVVPPERR
**Q.** For B2, which Kd [2] is on record?
**A.** Its Kd is 7.02 µM.
